What all share (details): both partners purified
Assay [1] addresses T1, full-length human HP1α WT (hHP1α), recombinant (human, UniProt P45973 1-191).
T1 construct: heterochromatin protein 1 alpha (HP1α), human, full length; Used as a dimer; The 6His-MBP tag was removed with TEV protease; also called HP1α (full-length, FL); HP1α dimer; source: E. coli BL21 DE3 (pCold), purified (Amylose Resin, TEV cleavage, Ni-NTA flow-through, HiTrap Q)
The assay can be described thus: ITC; VP-ITC, 10 μM INCENP peptide or fragment in the cell, 100 μM HP1α full-length or CSD dimer in the syringe, 20°C, 20 mM NaPO4 pH 7.0, 150 mM NaCl, 1 mM DTT (Fig. 2D, Fig. 3D and E); one-site model. A general note: ITC needs no label: the signal is the heat of the interaction.

The target in assay [2] is T1, full-length human HP1α WT (hHP1α), …. The assay can be described thus: ITC; iTC200, full-length HP1α dimer in the cell (60 μM for hINCENP, 80 μM for hSgo1), 600 μM hINCENP or 800 μM hSgo1 fragment in the syringe, 25°C, 20 mM NaPO4 pH 7.0, 150 mM NaCl, 1 mM DTT (Fig. 6A, Fig. S5A); one-site model.
Assay [3] has the same target. The assay can be described thus: pull-down; 10 μM full-length hHP1α mixed with 5 μM GST-tagged hINCENP -6His fragments in 20 mM NaPO4 pH 7.0, 150 mM NaCl, 1 mM DTT, 30 min at 4°C; Glutathione Sepharose 4B; CBB staining.
Assay [4] has the same target. The assay can be described thus: ITC; VP-ITC, 10 μM INCENP fragment in the cell, 100 μM HP1α dimer in the syringe, 20°C, 10 mM Tris pH 8.0, 150 mM NaCl, 1 mM DTT (Fig. 2C); one-site model.

T1 sequence (P45973 whole entry): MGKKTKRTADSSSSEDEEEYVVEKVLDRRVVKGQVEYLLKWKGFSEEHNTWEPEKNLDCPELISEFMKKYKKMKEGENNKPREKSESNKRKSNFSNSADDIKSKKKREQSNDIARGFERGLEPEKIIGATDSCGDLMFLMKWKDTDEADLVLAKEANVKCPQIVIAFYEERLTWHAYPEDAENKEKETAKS

B1: human INCENP (121-210) -6His, GST removed (Fig. 2D) (domain or fragment, UniProt Q9NQS7 121-210, looked up)
chain: LRRVTRAAAAAAAATMALAAPSSPTPESPTMLTKKPEDNHTQCQLVPVVEIGISERQNAEQHVTQLMSTEPLPRTLSPTPASATAPTSQG
notes: source: E. coli BL21 Codon Plus (pGEX6P1), purified (Ni-NTA, PreScission cleavage, Glutathione Sepharose flow-through, SEC)
For the molecule B1, the binding result in assay [1] is on record as “binds”.

B2: human Sgo1 fragment (405-494), Tyr-added, GST removed (domain or fragment)
chain: YAKRALKYTDEKETEGSKPTKTPTTTPPETQQSPHLSLKDITNVSLYPVVKIRRLSLSPKKNKASPAVALPKRRCTASVNYKEPTLASKLR
notes: tyrosine residue inserted after the PreScission site, to determine the concentration; Sgo1 (shugoshin 1), human, residues 405-494, contains the canonical PVI motif; also called Sgo1 fragment containing the PVI motif (residues 405–494); Sgo1 405–494; source: E. coli BL21 Codon Plus (pGEX6P1), purified (Glutathione Sepharose, PreScission cleavage, SEC)
In the case of B2, the Kd (in general, a measure of binding affinity in units of concentration) in assay [2] is approximately 4000 nM.

B3: human INCENP (160-210) -6His, GST removed (domain or fragment, UniProt Q9NQS7 160-210, looked up)
chain: HTQCQLVPVVEIGISERQNAEQHVTQLMSTEPLPRTLSPTPASATAPTSQG
notes: INCENP, human, residues 160-210; Isotope-labelled (15N or 13C/15N) in the NMR experiments and unlabelled in ITC; also called 15N-INCENP (160–210) -6His; 13C/15N-INCENP (160–210) -6His; source: E. coli BL21 Codon Plus (pGEX6P1), purified (Ni-NTA, PreScission cleavage, Glutathione Sepharose flow-through, SEC); for NMR grown in M9 medium with 15N-ammonium chloride with or without 13C-glucose; not …
As to B3, the binding result in assay [1] is on record as “binds”.

B4: GST-tagged human INCENP (160-210) -6His (domain or fragment, UniProt Q9NQS7 160-210, looked up)
chain: HTQCQLVPVVEIGISERQNAEQHVTQLMSTEPLPRTLSPTPASATAPTSQG
notes: INCENP, human, residues 160-210; also called INCENP fragment 160–210; source: E. coli BL21 Codon Plus (pGEX6P1), purified (non-cleaved version, SEC); not shown: His6, C-terminal, kept
B4: in assay [3], the binding result was “binds”.

B5: human INCENP (121-270) WT -6His, GST removed (domain or fragment, UniProt Q9NQS7 121-270, looked up)
chain: LRRVTRAAAAAAAATMALAAPSSPTPESPTMLTKKPEDNHTQCQLVPVVEIGISERQNAEQHVTQLMSTEPLPRTLSPTPASATAPTSQGIPTSDEESTPKKSKARILESITVSSLMATPQDPKGQGVGTGRSASKLRIAQVSPGPRDSP
notes: The methods describe no removal of the 6His tag; source: E. coli BL21 Codon Plus (pGEX6P1), purified (Ni-NTA, PreScission cleavage, Glutathione Sepharose flow-through, SEC)
In the case of B5, in assay [4], the Kd was 42 nM.

The record behind these values is PMC11116813, “Bipartite binding interface recruiting HP1 to chromosomal passenger complex at inner centromeres” (The Journal of Cell Biology, 2024).
